We go through 2 substances from PMC8683613.

As a reminder, the Kd is the constant that tells how readily two partners part at equilibrium. Low readings indicate tighter binding, high ones weaker binding.

For experiment [1], the target named is oxygen-cleaved pyruvate formate-lyase mimic (cPFL, residues 1-733) (E. coli). Briefly: ITC; YfiD variant in the syringe titrated into the PFL variant in the cell, matched buffer; MicroCal iTC200, 25 °C, 20 injections of 2.0 μl. A general note: ITC needs no label: the signal is the heat of the interaction.
Chain of oxygen-cleaved pyruvate formate-lyase mimic (cPFL, residues 1-733) (E. coli) (P09373 2-734 limits assumed): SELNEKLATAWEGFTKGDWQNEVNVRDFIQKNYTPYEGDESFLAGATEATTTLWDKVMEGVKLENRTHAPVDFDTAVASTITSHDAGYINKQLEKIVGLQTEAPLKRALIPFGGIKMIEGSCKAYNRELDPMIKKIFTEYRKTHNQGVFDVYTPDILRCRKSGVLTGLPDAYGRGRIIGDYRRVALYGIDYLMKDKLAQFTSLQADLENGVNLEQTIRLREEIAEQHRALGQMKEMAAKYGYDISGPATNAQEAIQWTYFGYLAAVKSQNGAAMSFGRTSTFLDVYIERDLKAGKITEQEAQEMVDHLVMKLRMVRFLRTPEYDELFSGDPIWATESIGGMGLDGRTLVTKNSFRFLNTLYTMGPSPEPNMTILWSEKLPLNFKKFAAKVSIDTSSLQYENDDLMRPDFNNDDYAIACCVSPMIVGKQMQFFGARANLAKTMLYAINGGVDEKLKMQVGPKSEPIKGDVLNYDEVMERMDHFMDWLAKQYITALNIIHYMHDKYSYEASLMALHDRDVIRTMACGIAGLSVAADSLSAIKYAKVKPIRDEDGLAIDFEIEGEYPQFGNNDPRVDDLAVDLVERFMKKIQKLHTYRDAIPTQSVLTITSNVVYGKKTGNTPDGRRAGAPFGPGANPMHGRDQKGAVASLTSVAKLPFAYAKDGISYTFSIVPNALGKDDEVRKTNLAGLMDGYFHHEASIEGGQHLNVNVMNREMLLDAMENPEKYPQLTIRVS
The target in experiment [2] is truncated pyruvate formate-lyase (tPFL, residues 1-695) (E. coli).
Chain of truncated pyruvate formate-lyase (tPFL, residues 1-695) (E. coli) (P09373 1-695): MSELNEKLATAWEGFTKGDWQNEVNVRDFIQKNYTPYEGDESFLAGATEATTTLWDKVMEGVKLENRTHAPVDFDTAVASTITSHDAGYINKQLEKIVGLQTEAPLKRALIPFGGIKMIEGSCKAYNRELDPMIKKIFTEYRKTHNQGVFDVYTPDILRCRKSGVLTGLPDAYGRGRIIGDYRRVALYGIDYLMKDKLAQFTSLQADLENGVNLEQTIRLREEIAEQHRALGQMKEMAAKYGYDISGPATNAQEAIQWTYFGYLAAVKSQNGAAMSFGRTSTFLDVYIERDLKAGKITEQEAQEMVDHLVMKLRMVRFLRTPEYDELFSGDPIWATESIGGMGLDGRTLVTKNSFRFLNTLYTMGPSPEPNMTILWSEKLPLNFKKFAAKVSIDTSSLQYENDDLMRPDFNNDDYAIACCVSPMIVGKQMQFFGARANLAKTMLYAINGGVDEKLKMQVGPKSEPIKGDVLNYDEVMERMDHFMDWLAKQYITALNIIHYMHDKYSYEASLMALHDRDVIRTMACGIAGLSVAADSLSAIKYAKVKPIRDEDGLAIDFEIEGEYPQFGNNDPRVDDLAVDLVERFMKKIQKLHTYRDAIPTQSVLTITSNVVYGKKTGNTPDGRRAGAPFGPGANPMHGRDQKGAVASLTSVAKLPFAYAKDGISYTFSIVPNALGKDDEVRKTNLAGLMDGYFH
Experiment [3] has as its target oxygen-cleaved pyruvate formate-lyase mimic (cPFL, residues 1-733) (E. coli).
Experiment [4] has the same target. The source holds these as a separate data set.

As to “YfiD (spare part protein, autonomous glycyl radical cofactor) (from UniProt P68066 1-127) (natural protein)”, the Kd in experiment [1] is 14 µM. In addition, in experiment [2], the glycyl radical installed by PFL-AE on the 1:1 tPFL:YfiD mixture (200 μM each), quantified by EPR amounted to 0.5 µM. Moreover, the glycyl radical installed by PFL-AE on the 1:1 cPFL:YfiD mixture (200 μM each), quantified by EPR; no detectable radical for the individual components in experiment [3] was determined as 15.9 µM.

For the substance “truncated YfiD (truncYfiD, residues 61-127) (from UniProt P68066 61-127) (domain or fragment)”, the glycyl radical installed by PFL-AE on the 1:1 tPFL:truncYfiD mixture (200 μM each), quantified by EPR in experiment [2] was 2.7 µM. Further, the glycyl radical installed by PFL-AE on the 1:1 cPFL:truncYfiD mixture (200 μM each), quantified by EPR in experiment [3] worked out at 4.1 µM. Also, the apparent kcat of acetyl-CoA production by the activated cPFL:truncYfiD complex (coupled assay, 21 °C, per glycyl radical) in experiment [4] is 186 s⁻¹.
